The source of these data is KR20230086338A (dated 2023).

By Kd is commonly meant the equilibrium constant for the complex coming apart. Low values mean tighter binding, high ones weaker binding.

The target of the assay is T1, 재조합 인간 MUC1-C 항원 (MUC1-C ECD) (human, UniProt P15941 1098-1158).
T1 construct: also called 재조합 MUC1-C 단백질; 재조합 hMUC1-항원
T1 sequence: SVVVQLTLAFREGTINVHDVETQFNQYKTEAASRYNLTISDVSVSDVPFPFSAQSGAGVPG
Put plainly: BLI (Octet RED 96); MUC1-C antigen immobilised on AR2G sensor at 5 μg/mL, antibody 0.626-20 nM, 1:2 binding model. For orientation: Biolayer interferometry detects binding as a change in optical thickness at a sensor tip.

B1: KC-001 항체 (인간 MUC1-C 항체 KC-001) (antibody, V domains shown)
VH: QVQLVESGGGLVQPGGSLRLSCAASGFTFSNYGMSWVRQAPGKGLEWVSSISNGGGSTSYADSVKGRFTISRDNSKNTLYLQMNSLRAEDTAVYYCAGWGIRGVTRPYYYYGMDVWGQGTTITVSS
VL: DIVMTQTPLSLSVTPGQPASISCKSSQSLLHSDRKTYLYWYLQKPGQSPQLLIYEASNRFSGVPDRFSGGGSGTDFTLKISRVEADDVGIYYCMQGLHPIT
notes: Human antibody from a naive scFv phage library; also called 항-MUC1 항체
B1: binding was characterised by a dissociation constant (Kd) of 6.49 nM.
